Target: the molecule itself
Assay: crystal structure; OXA-10 crystals (hanging drop, 4 °C, 20–23% PEG 3350, 0.2 M magnesium formate) soaked about 2 min with IPM; 1.89 Å, P212121, two chains in the asymmetric unit; dimer interface analysed with PISA

B1: OXA-10 class D β-lactamase (enzyme)
chain: GSITENTSWNKEFSAEAVNGVFVLCKSSSKSCATNDLARASKEYLPASTFKIPNAIIGLETGVIKNEHQVFKWDGKPRAMKQWERDLTLRGAIQVSAVPVFQQIAREVGEVRMQKYLKKFSYGNQNISGGIDKFWLEGQLRISAVNQVEFLESLYLNKLSASKENQLIVKEALVTEAAPEYLVHSKTGFSGVGTESNPGVAWWVGWVEKETEVYFFAFNMDIDNESKLPLRKSIPTKIMESEGIIGG
modifications: carboxylated lysine 70 (KCX70); S67 OG covalently bound to the ring-opened carbapenem (IPM or ETP, acyl-enzyme)
notes: Crystals were soaked with imipenem (6SKP) or ertapenem (6SKR); two chains (A, B) in the asymmetric unit; also called OXA-10_IPM; OXA-10_ETP
B1: binds.

Reference: PMC7459404, “Structural insights into the enhanced carbapenemase efficiency of OXA‐655 compared to OXA‐10” (FEBS Open Bio, 2020)
